Experimental data reported in article doi:10.1101/2022.09.26.507364 (bioRxiv, 2022).

Target: T1, Long neurotoxin 1 (3L21_OXYSC) from O. scutellatus scutellatus (coastal taipan), recombinant long 3FTX (Oxyuranus scutellatus scutellatus)
T1 chain: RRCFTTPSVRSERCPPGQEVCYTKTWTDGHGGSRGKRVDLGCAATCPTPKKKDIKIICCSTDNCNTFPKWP
Test: SPR

B1: Centi-3FTX-D09 (antibody, V domains shown)
VH: EVQLVESGGGFVQPGGSLRLSCAASGFTFSNFDMHWVRQSPGKGLEWVSGLDHSGGAHYAGSVKGRFTISREDAKNSLDLQMNNLRVDDTAVYFCVRGTLYHYTSGSYYSDAFDIWGQGTLVTVSS
VL: EIVLTQSPSSLSASVGDRVTITCQASQDISNYLNWYQQKPGKAPKLLIYAASSLESGVPSRFSGSGSGTDFTLTISSQQPEDFATYYCQQANSFPYTFGQGTKVEIK
**Q.** B1 was tested. Which Kd did it give?
**A.** 0.49 nM
